Measured values reported in PMC4705524.

Key:
[1] = biological target: Pfs25-IMX313 (HEK293 cells, pENTR4-LPTOS shuttle plasmid) (Plasmodium falciparum | chicken) (UniProt P13829); assay: non-reducing SDS-PAGE with western blot; 15 μL supernatant of transfected HEK293 cells per lane, reduced and non-reduced conditions, detected with anti-Pfs25 mAb 4B7
[2] = biological target: Pfs25-IMX313 protein-nanoparticle (P. pastoris) (Plasmodium falciparum | chicken) (UniProt P13829); assay: non-reducing SDS-PAGE with western blot; protein purified from P. pastoris supernatant, 500 ng per lane, reduced and non-reduced conditions, detected with anti-Pfs25 mAb 4B7

| Substance | stoichiometry N [1] | stoichiometry N [2] |
| --- | --- | --- |
| Pfs25-IMX313 (HEK293 cells, pENTR4-LPTOS shuttle plasmid) (from UniProt P13829 22-193) | 7 |  |
| Pfs25-IMX313 protein-nanoparticle (P. pastoris) (from UniProt P13829 22-193) |  | 7 |
